Test results from paper PMC2120661.

Target: VLA-5 integrin (alpha5 beta1), affinity-isolated from mouse thymocyte lysate (mouse (endogenous in thymocytes)) (UniProt P09055)
Experiment: ELISA

percent inhibition of the binding of L1 to VLA-5 at 500 ug/ml peptide: 80%
Binder: CWRGDGRDLQERGDSDK [L1-RGD peptide]
